Residue numbers refer to the chain shown, from its start.

From patent WO2015129919A1 (dated 2015) come the findings set out here.

For experiment [1], the target named is T1, SLC6A6 (solute carrier family 6 (neurotransmitter transporter, taurine), member 6), human, native on the cell … (human, UniProt P31641 1-620).
T1 construct: also called native SLC6A6; taurine transporter
T1 sequence: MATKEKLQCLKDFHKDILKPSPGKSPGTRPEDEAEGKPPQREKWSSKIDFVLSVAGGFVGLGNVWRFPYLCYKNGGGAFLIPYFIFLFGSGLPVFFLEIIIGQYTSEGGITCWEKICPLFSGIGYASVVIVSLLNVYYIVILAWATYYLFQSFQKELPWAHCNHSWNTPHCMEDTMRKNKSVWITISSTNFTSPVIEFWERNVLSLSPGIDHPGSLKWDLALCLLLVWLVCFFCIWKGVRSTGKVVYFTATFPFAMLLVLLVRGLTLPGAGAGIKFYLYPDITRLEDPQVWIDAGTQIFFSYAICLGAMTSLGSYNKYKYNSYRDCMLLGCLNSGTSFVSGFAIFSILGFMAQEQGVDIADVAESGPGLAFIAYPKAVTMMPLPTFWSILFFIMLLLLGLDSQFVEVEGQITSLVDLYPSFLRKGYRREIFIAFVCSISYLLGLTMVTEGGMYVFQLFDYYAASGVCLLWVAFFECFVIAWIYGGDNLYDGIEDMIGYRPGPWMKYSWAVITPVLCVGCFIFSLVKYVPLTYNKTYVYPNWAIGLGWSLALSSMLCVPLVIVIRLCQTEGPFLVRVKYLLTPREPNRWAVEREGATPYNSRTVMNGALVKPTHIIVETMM
Put plainly: flow cytometry on HCT116 cells. A general note: A flow cytometer gives signals particle by particle.

Experiment [2] concerns the target T1, SLC6A6 (solute carrier family 6 …). Kind of experiment: flow cytometry on HCT116 cells, antibody 10 ug/mL.
Experiment [3] has as its target T2, SLC6A6 extracellular region partial protein (E. coli recombinant, amino acid residues 143 to 216, C-terminal … (human, UniProt P31641 143-216)).
T2 construct: also called partial protein of the extracellular region of SLC6A6; SLC6A6 partial protein for screening
T2 sequence: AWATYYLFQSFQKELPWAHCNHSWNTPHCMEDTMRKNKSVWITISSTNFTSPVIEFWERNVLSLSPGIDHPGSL
Kind of experiment: competition inhibition test; 402 at 10 ug/mL pre-incubated with recombinant SLC6A6 extracellular region partial protein at 15 ug/mL, read out by immunofluorescence on HCT116 cells.

The target in experiment [4] is T1, SLC6A6 (solute carrier family 6 …). Put plainly: flow cytometry on 293T cells (express SLC6A6), antibody 10 ug/mL.
Experiment [5] shares this target. Put plainly: immunohistochemistry on breast cancer and uterine cancer tissue sections.

B1: monoclonal antibody produced by mouse-mouse hybridoma 303 (antibody, V domains shown)
VH: VQLQQPGAEFVKPGTSVKLSCKASGYNFTRYWINWVKLRPGQGLEWIGNIYPATNGINYNEKFKSKATLTVDTFSSTAYMQLSSLASEDSGLYYCARCKTMLSRCAWFPYWGQGTLVTVSA
VL: DIQMTQTTSSLSASLGDRVTINCRASQDISNYLNWYQQKPDGTVKLLIYDTSRLHSRVPSRFSGSGSGTDYSLTISNLEQEDIATYFCQQGNMLPWTFGGGTKLEIK
notes: Mouse IgG from the hybridoma
In the case of B1, in experiment [1], the binding result was “binds”.

B2: antibody clone 402 human-mouse chimeric antibody (antibody, human IgG1, kappa, V domains shown)
VH: QVKLQQSGPELVKPGASVKVSCTASGYAFTQYNLYWVKLRHGKCPKWIGSIDPYIGGTTYNQQFKDKVTLTVDKSSSTAYLHLNSLTSEDSAIYYCARWWDGYFDVWGAGTTVTVSS
VL: QIVLTQSPAIMSASLGERVTLTCTASSSVISRYLHWYQVKPGSSPKLWIYSTSNLASGVPTRFSGSGSGTSYSLTISNMEAEDAATYYCHQYHRSPLTFGAGTKLELTR
notes: Human IgG1 heavy chain constant region and human kappa constant region, expressed in Expi293F cells; also called c402 mAb
On to B2, for which, in experiment [2], the binding result is on record as “binds”.

B3: monoclonal antibody produced by mouse-mouse hybridoma 402 (antibody, V domains shown)
VH: VKLQQSGPELVKPGASVKVSCTASGYAFTQYNLYWVKLRHGKCPKWIGSIDPYIGGTTYNQQFKDKVTLTVDKSSSTAYLHLNSLTSEDSAIYYCARWWDGYFDVWGAGTTVTVSS
VL: QIVLTQSPAIMSASLGERVTLTCTASSSVISRYLHWYQVKPGSSPKLWIYSTSNLASGVPTRFSGSGSGTSYSLTISNMEAEDAATYYCHQYHRSPLTFGAGTKLELT
notes: Mouse IgG from the hybridoma
Regarding B3, the binding result in experiment [1] and in experiment [3] was “binds” throughout.

B4: monoclonal antibody produced by mouse-mouse hybridoma 430 (antibody, V domains shown)
VH: B3 VH with V1I, K2Q, L10V, A15T, K18R, T57A, T58N
VL: B3 VL with L21M, I30S, S31F, T61S, F63I, S73F
notes: Mouse IgG from the hybridoma; also called antibody clone 430; 430 antibody
As for B4, the binding result in experiment [1] is recorded as “binds”.

B5: monoclonal antibody produced by mouse-mouse hybridoma 422 (antibody, V domains shown)
VH: VQLQQSGPEVVKPGPSLRMSCKASGYFFTGNSMNWVKKTHGRSLEWIGLIDLSNGETRFNQKFKGKATLTVDKSSGTAYMELLNLTSEDSAVYYCASRSAMIMPCFSHWGQGTLVTVSA
VL: DIVMTQSHNFMSTSIGDRVNITCKASQDVATAVAWFQQKPGQSPKLLIYWTSTRHTGVPDRFTGSGYGTDFTLTISHVQSEDLADYFCQQYDTYPYTFGGGTKLEIK
notes: Mouse IgG from the hybridoma; also called antibody clone 422
Regarding B5, in experiment [1], the binding result was “binds”.

B6: monoclonal antibody produced by mouse-mouse hybridoma 419 (antibody, V domains shown)
VH: IQLQQSGPELVKPGASVKVSCKAFGYAFTRHNMYWVKQRHGKCLEWIGYIDPFNGGTSYNQKFKGKATLTVDKSSSTAYMHLNSLTSEDSAVYYCARVYGNYAWFAYWGQGTLVTVSA
VL: DIVMTQSHKFMSTSVGDRVSITCKASQDVSTAVAWYQQIPGQSPKLLIYSSSYRYTGVPDRFTGSGSGTDFTFTISSVQAEDLAVYYCQQHYNTPWTFGGGTKLEIK
notes: Mouse IgG from the hybridoma
For the molecule B6, in experiment [4], the binding result was “binds”.

B7: monoclonal antibody produced by mouse-mouse hybridoma 205 (antibody, V domains shown)
VH: VKLQQSGPELVKPGASVKMSCKASGYTFTSYVMHWVKQKPGQGLEWIGYINPYNDGTKYNEKFKGKATLTSDKSSSTAYMELSSLTSEDSAVYYCARRKAWFAYWGQGTLVTVSA
VL: DIQMTQSPASQSASLGESVTITCLASQTIGTWLAWYQQKPGKSPQLLIYAATSLADGVPSRFSGSGSGTKFSFKISSLQAEDFVSYYCQQLYSTPLTFGGGTKLEIK
notes: Mouse IgG from the hybridoma
As to B7, the binding result in experiment [5] is given as “binds”.
